Assay results: paper PMC5441850, “Waxy and non-waxy barley cultivars exhibit differences in the targeting and catalytic activity of GBSS1a” (Journal of Experimental Botany, 2017)
Changes are numbered by the printed parent chain. Numbers in names are those of the source.

B1: HvGBSSIa (Hordeum vulgare; D287V/I559V/M558V) (protein)
chain: SATGSGMNLVFVGAEMAPWSKTGGLGDVLGGLPPAMAANGHRVMVVSPRYDQYKDAWDTSVISEIKVADEYERVRFFHCYKRGVDRVFIDHPWFLEKVRGKTKEKIYGPDAGTDYEDNQQRFSLLCQAALEAPRILNLNNNPYFSGPYGEDVVFVCNDWHTGLLACYLKSNYQSNGIYRTAKVAFCIHNISYQGRFSFDDFAQLNLPDRFKSSFDFIVGYDKPVEGRKINWMKAGILQADKVLTVSPYYAEELISGEARGCELDNIMRLTGITGIVNGMDVSEWDPTKDKFLAVNYDITTALEAKALNKEALQAEVGLPVDRKVPLVAFIGRLEEQKGPDVMIAAIPEILKEEDVQIILLGTGKKKFEKLLKSMEEKFPGKVRAVVRFNAPLAHQMMAGADLLAVTSRFEPCGLIQLQGMRYGTPCVCASTGGLVDTIVEGKTGFHMGRLSVDCNVVEPADVKKVATTLKRAVKVVGTPAYQEMVKNCVVQDLSWKGPAKNWEDVLLELGVEGSEPGIVGEEIAPLAMENVAAP
notes: initial 69 residues (plastid transit peptide) removed; codon-optimized, pET28a 6xHis tag; E. coli Tuner(DE3); HisTrap and Superdex75; mature size 59 kDa; CDC Alamo allele entry AF486519
B2: HvGBSSIa (Hordeum vulgare; I559V) (protein)
chain: B1 chain with V218D, V489M
notes: as for B1
B3: HvGBSSIa (Hordeum vulgare; M558V) (protein)
chain: B1 chain with V218D, V490I
notes: as for B1
B4: HvGBSSIa (Hordeum vulgare; D287V) (protein)
chain: B1 chain with V489M, V490I
notes: as for B1
B5: HvGBSSIa (Hordeum vulgare; I559V/M558V) (protein)
chain: B1 chain with V218D
notes: as for B1
B6: HvGBSSIa (Hordeum vulgare) (protein)
chain: B1 chain with V218D, V489M, V490I
notes: as for B1

The proteins below were run on Nc1ncnc2c1ncn2[C@@H]1O[C@H](COP(=O)(O)OP(=O)(O)O[C@H]2O[C@H](CO)[C@@H](O)[C@H](O)[C@H]2O)[C@@H](O)[C@H]1O (assay: purified protein). Conditions: rabbit liver glycogen 1 mg/ml as acceptor, 50 mM Bicine pH 8.5, 25 mM potassium acetate, 2 mM MgCl2, 10 mM DTT, 37 °C.
Format: biochemical, Hordeum vulgare
B1 showed a Km of 51 ± 10 µM and a kcat of 0.00933 ± 0.0005 s⁻¹. B2 gave a Km of 114 ± 15 µM and a kcat of 0.112 ± 0.005 s⁻¹. B3 gave a Km of 71 ± 7 µM and a kcat of 0.353 ± 0.01 s⁻¹. Work on B4 yielded a Km of 127 ± 9 µM and a kcat of 0.046 ± 0.001 s⁻¹. For B5, the Km was 56 ± 8 µM and the kcat was 0.0157 ± 0.00067 s⁻¹. B6 gave a Km of 160 ± 15 µM and a kcat of 0.0967 ± 0.0033 s⁻¹.
